Reference: patent EP4538286A1 (Adlai Nortye Biopharma Co., Ltd., dated 2025)
Changes are numbered by the printed parent chain. Names may count otherwise. Each block holds one binder with its values, some of them ahead of it.

Columns and labels:
human CTLA4 protein = target: T1, human CTLA4 protein (human, UniProt P16410 37-162, limits assumed); assay: ELISA, plate-coated human CTLA4
T1 construct: bought protein coated on the ELISA plate; also called human CTLA4 antigen
T1 sequence (looked up): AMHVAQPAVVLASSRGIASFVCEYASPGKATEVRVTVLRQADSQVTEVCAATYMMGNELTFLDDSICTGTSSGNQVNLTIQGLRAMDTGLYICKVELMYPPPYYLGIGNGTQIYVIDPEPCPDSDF

human CD28 protein = target: T2, human CD28 protein (human, UniProt P10747 19-152); assay: ELISA, plate-coated human CD28; set-up: binding strength @ 100nM: reference not given here
T2 construct: bought protein coated on the ELISA plate; also called human CD28 antigen
T2 sequence (P10747 19-152 limits assumed): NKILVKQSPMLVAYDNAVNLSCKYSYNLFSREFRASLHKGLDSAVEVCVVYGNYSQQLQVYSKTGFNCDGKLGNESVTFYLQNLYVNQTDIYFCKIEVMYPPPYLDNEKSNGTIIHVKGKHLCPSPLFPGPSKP

binding result (human CTLA4 protein): no binding
binding result (human CD28 protein): no binding
B10: Abs-253 (other)
heavy: VIHVTKEVKEVATLSCGHNVSVEELAQTRIYWQKEKKMVLTMMSGDMNIWPEYKNRTIFDITNNLSIVYLELRPSDEGTYECVVLKYEKDAFKREHLAEVTLSVKADGGGGSGGGGSGGGGSGGGGSGEVQLLESGGGLVQPGGSLRLSCAASGFTFSSYAMSWVRQAPGKGLEWVSGISGSGGFTYYADSVKGRFTISRDNSKNTLYLQMNSLRAEDTAVYYCAKPPRGYNYGPFDYWGQGTLVTVSSASTKGPSVFPLAPCSRSTSESTAALGCLVKDYFPEPVTVSWNSGALTSGVHTFPAVLQSSGLYSLSSVVTVPSSSLGTKTYTCNVDHKPSNTKVDKRVESKYGPPCPPCPAPEFLGGPSVFLFPPKPKDTLMISRTPEVTCVVVDVSQEDPEVQFNWYVDGVEVHNAKTKPREEQFNSTYRVVSVLAVLHQDWLNGKEYKCKVSNKGLPSSIEKTISKAKGQPREPQVYTLPPSQEEMTKNQVSLTCLVKGFYPSDIAVAWESNGQPENNYKTTPPVLDSDGSFFLYSRLTVDKSRWQEGNVFSCSVMHEALHAHYTQKSLSLSLGK
light: SYVLTQPPSVSVAPGQTARITCGGNNIGSKSVHWYQQKPGQAPVLVVYDDSDRPSGIPERFSGSNSGNTATLTISRVEAGDEADYYCQVWDSSSDHVVFGGGTKLTVLGQPKAAPSVTLFPPSSEELQANKATLVCLISDFYPGAVTVAWKADSSPVKAGVETTTPSKQSNNKYAASSYLSLTPEQWKSHRSYSCQVTHEGSTVEKTVAPTECS
notes: the paragraph that names the antibody is followed; also called CD80 IgV mutant I69Y/A71E-sugemalimab fusion

binding result (human CTLA4 protein): no binding
binding result (human CD28 protein): no binding
B12: Abs-248 (other)
heavy: B10 heavy with M47A, Y69W, V83L
light: B10 light
notes: the paragraph that names the antibody is followed; also called CD80 IgV mutant M47A/I69W/A71E/V83L-sugemalimab fusion

binding result (human CTLA4 protein): no binding
binding result (human CD28 protein): no binding
B13: Abs-254 (other)
heavy: B10 heavy with Y69W
light: B10 light
notes: the paragraph that names the antibody is followed; also called CD80 IgV mutant I69W/A71E-sugemalimab fusion

binding result (human CTLA4 protein): no binding
binding result (human CD28 protein): no binding
B14: Abs-249 (other)
heavy: B10 heavy with M47A
light: B10 light
notes: the paragraph that names the antibody is followed; also called CD80 IgV mutant M47A/I69Y/A71E-sugemalimab fusion

binding result (human CTLA4 protein): no binding
binding result (human CD28 protein): no binding
B15: Abs-265 (other)
heavy: B10 heavy with T13K, M42L, M47H, Y69I
light: B10 light
notes: the paragraph that names the antibody is followed; also called CD80 IgV mutant T13K/M42L/M47H/A71E-sugemalimab fusion

binding result (human CTLA4 protein): no binding
binding result (human CD28 protein): no binding
B16: Abs-268 (other)
heavy: B10 heavy with T13K, M42T, M47H, Y69I
light: B10 light
notes: the paragraph that names the antibody is followed; also called CD80 IgV mutant T13K/M42T/M47H/A71E-sugemalimab fusion

binding result (human CTLA4 protein): no binding
binding result (human CD28 protein): no binding
B17: Abs-270 (other)
heavy: B10 heavy with T13K, M42T, Y69I
light: B10 light
notes: CD80 IgV mutant fused to the N-terminus of the sugemalimab heavy chain; also called CD80 IgV mutant T13K/M42T/A71E-sugemalimab fusion

binding result (human CTLA4 protein): no binding
binding result (human CD28 protein): no binding
B18: Abs-252 (other)
heavy: B10 heavy with Y69W, V83L
light: B10 light
notes: the paragraph that names the antibody is followed; also called CD80 IgV mutant I69W/A71E/V83L-sugemalimab fusion

binding result (human CTLA4 protein): no binding
binding result (human CD28 protein): no binding
B19: Abs-258 (other)
heavy: B10 heavy with H18W, A26C, Y69I, L85D
light: B10 light
notes: the paragraph that names the antibody is followed; also called CD80 IgV mutant H18W/A26C/A71E/L85D-sugemalimab fusion

binding result (human CTLA4 protein): no binding
binding result (human CD28 protein): no binding
B20: Abs-261 (other)
heavy: B10 heavy with A26C, Y69I, L85D
light: B10 light
notes: the paragraph that names the antibody is followed; also called CD80 IgV mutant A26C/A71E/L85D-sugemalimab fusion

binding result (human CTLA4 protein): no binding
binding result (human CD28 protein): no binding
B21: Abs-273 (other)
heavy: B10 heavy with M47K, V83L
light: B10 light
notes: CD80 IgV mutant fused to the N-terminus of the sugemalimab heavy chain; also called CD80 IgV mutant M47K/I69Y/A71E/V83L-sugemalimab fusion

binding result (human CTLA4 protein): no binding
binding result (human CD28 protein): no binding
B22: Abs-366 (other)
heavy: B10 heavy with E35T, Y69I, E71N
light: B10 light
notes: CD80 IgV mutant fused to the N-terminus of the sugemalimab heavy chain; also called CD80 IgV mutant E35T/A71N-sugemalimab fusion

binding result (human CTLA4 protein): no binding
binding result (human CD28 protein): no binding
B23: Abs-259 (other)
heavy: B10 heavy with A26M, Y69I, L85N
light: B10 light
notes: the paragraph that names the antibody is followed; also called CD80 IgV mutant A26M/A71E/L85N-sugemalimab fusion

The next lines start with the binder.

B1: Abs-247 (other)
heavy: B10 heavy with M47A, V83L
light: B10 light
notes: the paragraph that names the antibody is followed; also called CD80 IgV mutant M47A/I69Y/A71E/V83L-sugemalimab fusion
binding result (human CTLA4 protein): no binding
binding result (human CD28 protein): no binding

B2: Abs-266 (other)
heavy: B10 heavy with T13K, M42L, M47Q, Y69I
light: B10 light
notes: the paragraph that names the antibody is followed; also called CD80 IgV mutant T13K/M42L/M47Q/A71E-sugemalimab fusion
binding result (human CTLA4 protein): no binding
binding result (human CD28 protein): no binding

B3: Abs-271 (other)
heavy: B10 heavy with M47H, V83L
light: B10 light
notes: CD80 IgV mutant fused to the N-terminus of the sugemalimab heavy chain; also called CD80 IgV mutant M47H/I69Y/A71E/V83L-sugemalimab fusion
binding result (human CTLA4 protein): no binding
binding result (human CD28 protein): no binding

B4: Abs-250 (other)
heavy: B10 heavy with M47A, Y69W
light: B10 light
notes: the paragraph that names the antibody is followed; also called CD80 IgV mutant M47A/I69W/A71E-sugemalimab fusion
binding result (human CTLA4 protein): no binding
binding result (human CD28 protein): no binding

B5: Abs-251 (other)
heavy: B10 heavy with V83L
light: B10 light
notes: the paragraph that names the antibody is followed; also called CD80 IgV mutant I69Y/A71E/V83L-sugemalimab fusion
binding result (human CTLA4 protein): no binding
binding result (human CD28 protein): no binding

B6: Abs-263 (other)
heavy: B10 heavy with Y69L, V83L
light: B10 light
notes: the paragraph that names the antibody is followed; also called CD80 IgV mutant I69L/A71E/V83L-sugemalimab fusion
binding result (human CTLA4 protein): no binding
EC50 (human CD28 protein): 26.1 nM
binding strength @ 100nM (human CD28 protein): 333%

B7: Abs-262 (other)
heavy: B10 heavy with A26C, Y69I, L85N
light: B10 light
notes: the paragraph that names the antibody is followed; also called CD80 IgV mutant A26C/A71E/L85N-sugemalimab fusion
binding result (human CTLA4 protein): no binding
binding result (human CD28 protein): no binding

B8: Abs-255 (other)
heavy: B10 heavy with H18W, A26M, Y69I, L85N
light: B10 light
notes: the paragraph that names the antibody is followed; also called CD80 IgV mutant H18W/A26M/A71E/L85N-sugemalimab fusion
binding result (human CTLA4 protein): no binding
binding result (human CD28 protein): no binding

B9: Abs-272 (other)
heavy: B10 heavy with M47Q, V83L
light: B10 light
notes: CD80 IgV mutant fused to the N-terminus of the sugemalimab heavy chain; also called CD80 IgV mutant M47Q/I69Y/A71E/V83L-sugemalimab fusion
binding result (human CTLA4 protein): no binding
binding result (human CD28 protein): no binding

B11: Abs-267 (other)
heavy: B10 heavy with T13K, M42L, Y69I
light: B10 light
notes: the paragraph that names the antibody is followed; also called CD80 IgV mutant T13K/M42L/A71E-sugemalimab fusion
EC50 (human CTLA4 protein): 13.7 nM
binding strength @ 20nM (human CTLA4 protein): 1920%
binding result (human CD28 protein): no binding
